According to patent publication US7968081B2, “Peptide for diagnosing, preventing and treating atherosclerosis and uses thereof” (Kyungpook National University Industry—Academic Cooperation …, priority 2007, dated 2011):
Ends that are not written are not given here. * marks the point of attachment. FITC = O=C1OC2(c3ccc(O)cc3Oc3cc(O)ccc32)c2ccc(NC(=S)*)cc21

Tests used:
IL-4R [1] = molecular target: T1, IL-4R (Mus musculus, UniProt P16382); assay: Histological distribution of peptide and IL-4R in atherosclerotic plaque tissues; assay type: in vivo, mice; settings: 50 μM final concentration in blood, circulation 15 min; IL-4R antibody staining
T1 construct: from tissue; host or cells: aorta / atherosclerotic plaque of Ldlr-/- mice
T1 sequence (P16382 26-810): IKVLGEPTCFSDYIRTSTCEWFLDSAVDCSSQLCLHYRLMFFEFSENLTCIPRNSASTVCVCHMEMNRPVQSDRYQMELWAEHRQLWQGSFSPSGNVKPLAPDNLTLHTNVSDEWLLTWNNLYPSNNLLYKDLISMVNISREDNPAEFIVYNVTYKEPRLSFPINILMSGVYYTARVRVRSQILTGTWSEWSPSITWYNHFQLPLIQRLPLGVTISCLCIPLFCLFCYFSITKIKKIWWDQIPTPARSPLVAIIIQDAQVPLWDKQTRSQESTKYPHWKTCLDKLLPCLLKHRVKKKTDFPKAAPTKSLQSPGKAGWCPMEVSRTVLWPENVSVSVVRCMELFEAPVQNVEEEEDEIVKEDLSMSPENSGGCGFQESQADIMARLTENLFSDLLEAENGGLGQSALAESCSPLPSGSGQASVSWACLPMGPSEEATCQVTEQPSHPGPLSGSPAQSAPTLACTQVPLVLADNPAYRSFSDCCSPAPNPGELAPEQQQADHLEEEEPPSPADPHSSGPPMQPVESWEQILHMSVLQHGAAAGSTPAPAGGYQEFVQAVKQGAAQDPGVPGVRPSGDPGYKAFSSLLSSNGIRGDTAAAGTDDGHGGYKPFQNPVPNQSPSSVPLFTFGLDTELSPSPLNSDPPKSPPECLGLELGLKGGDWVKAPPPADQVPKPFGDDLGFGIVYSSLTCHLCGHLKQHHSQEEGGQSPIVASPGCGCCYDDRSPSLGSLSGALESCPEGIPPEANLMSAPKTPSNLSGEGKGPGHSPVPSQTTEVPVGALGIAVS
Procedure: In order to ascertain a receptor that binds to the peptide of the present invention, binding of the peptide was examined for various receptors. Out of those receptors, the results for IL-4R are as follows. First, fluorescein (FITC)-conjugated peptide of the present invention at a final concentration of 50 μM was injected into the blood of experimental animals, followed by circulation for 15 min. Thereafter, the aortae were removed from animals, and a frozen section slide was prepared. Then, the tissue section was stained by reaction of the section with antibodies (1:200 dilution, BD, USA) directed against IL-4R, at room temperature for 1 hour. In order to stain the tissue nuclei, DAPI was treated on the slide which was then examined under a fluorescence microscope (Joshi et al., Cancer Research, 61:8058-8061, 2001).

[2] = tested on: atherosclerotic plaque tissues; assay: In vivo atherosclerotic targeting of fluorescent dye-conjugated peptide (fluorescence microscopy of frozen sections); settings: atherosclerosis-induced mice, circulation 15 min
Description: C57BL/6 mice (Ldlr−/−) into which deficiency of a low-density lipoprotein (LDL) receptor was introduced by a genetic engineering technique were fed daily for 10 weeks with 3 g of high-cholesterol diet, thereby inducing atherosclerosis in animals. The high-cholesterol diet was a special animal feed containing 1.25% cholesterol, 15% fat and 0.5% cholate (Oriental Yeast Co., Japan).
Here, the peptide was synthesized by tagging an N-terminus of the peptide with FITC (fluorescein isothiocyanate) as a green fluorescent dye. The synthesized FITC-CRKRLDRNC peptide and a control peptide (FITC-NSSVDK) at final blood concentrations of 50 μM were injected into the atherosclerosis-induced mice via the left ventricle of animals, followed by circulation for 15 min. Thereafter, the aortae were removed from each mouse, and frozen sections were prepared, followed by Oil Red O (fat marker, Sigma-Aldrich, USA) staining or vWF (vascular endothelial cell marker, 1:5000 dilution, Abcam, USA) and Mac-3 (macrophage marker, 1:50 dilution, BD, USA) staining (Matter et al., Circulation Research, 95:1225-1233, 2004). In order to stain nuclei in tissues, a mounting medium containing a nuclear staining dye, 4′,6-diamidino-2-phenylindole (DAPI) (manufactured by Molecular Probe, USA) was treated on a slide, according to a conventional method known in the art, followed by fluorescence microscopic examination.

IL-4R [3] = molecular target: T2, IL-4R (Homo sapiens, UniProt P24394); assay: Bindability of peptide to IL-4R-expressing CHO-K1 cells (fluorescence microscopy); assay type: binding; settings: 10 μM peptide, room temperature, 1 hour
T2 sequence (P24394 26-825): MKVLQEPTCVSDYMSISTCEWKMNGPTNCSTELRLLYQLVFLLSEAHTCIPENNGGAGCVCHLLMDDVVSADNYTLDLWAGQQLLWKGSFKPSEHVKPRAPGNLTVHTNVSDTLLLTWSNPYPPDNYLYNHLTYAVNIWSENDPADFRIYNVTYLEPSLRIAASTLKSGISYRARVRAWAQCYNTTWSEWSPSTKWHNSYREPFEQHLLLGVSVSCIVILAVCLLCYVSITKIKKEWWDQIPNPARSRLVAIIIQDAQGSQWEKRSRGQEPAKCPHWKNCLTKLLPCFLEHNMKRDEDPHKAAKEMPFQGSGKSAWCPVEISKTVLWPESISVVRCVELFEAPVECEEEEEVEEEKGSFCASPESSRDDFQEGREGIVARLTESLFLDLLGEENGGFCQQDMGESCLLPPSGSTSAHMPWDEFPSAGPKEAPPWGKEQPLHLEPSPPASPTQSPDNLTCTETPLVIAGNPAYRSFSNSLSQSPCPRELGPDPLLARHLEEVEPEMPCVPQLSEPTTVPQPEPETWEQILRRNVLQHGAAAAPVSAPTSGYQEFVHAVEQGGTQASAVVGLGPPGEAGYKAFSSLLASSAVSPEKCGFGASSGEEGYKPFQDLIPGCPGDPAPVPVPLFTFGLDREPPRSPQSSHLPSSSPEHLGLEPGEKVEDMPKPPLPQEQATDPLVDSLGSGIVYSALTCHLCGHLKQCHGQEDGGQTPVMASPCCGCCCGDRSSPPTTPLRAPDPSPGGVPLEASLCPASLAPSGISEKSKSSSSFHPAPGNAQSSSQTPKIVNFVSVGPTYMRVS
Description: In order to further confirm roles of IL-4R as the receptor for the peptide of the present invention, a plasmid capable of expressing IL-4R (Cat. #TC119877, Origene, USA) was introduced into IL-4R-deficient CHO-K1 cells according to a conventional method known in the art, followed by expression of IL-4R, and binding of IL-4R with the peptide of the present invention was examined.
The cells were stained with antibodies (1:200 dilution) directed against. IL-4R and cell nuclei were stained with DAPI, followed by fluorescence microscopic examination. As a result, a large amount of IL-4R (red fluorescence) was present on the cell surface (FIG. 6B). Next, CHO-K1 and CHO-K1/IL-4R cells were reacted with 10 μM of the FITC-C-RKRLDRNC peptide at room temperature for 1 hour.

IL-4R [4] = molecular target: T2, IL-4R; assay: Bindability of peptide to HT-1376 cells with inhibited expression of IL-4R (siRNA); assay type: binding; design: HT-1376 cells that essentially show constitutive expression of IL-4R; endogenous in cells; host or cells: HT-1376
Procedure: Silencing RNA for IL-4R (Cat. #16708A, Ambion, USA) was introduced into HT-1376 cells that essentially show constitutive expression of IL-4R, according to a conventional method known in the art, and treated for 24 hours to thereby result in substantially no expression of IL-4R, followed by evaluation of peptide binding. More specifically, 10 nM of IL-4R silencing RNA synthesized by the manufacturer was mixed with a siPORT™ NeoFX™ lipid transfection agent (Ambion, USA), and the mixture was treated for 24 hours on HT-1376 cells grown in a 4-well chamber slide, such that IL-4R silencing RNA is incorporated into the cells. Thereafter, the culture medium was replaced with one containing 10% bovine serum and the cells were recovered for 24 hours. After staining of cells with IL-4R antibodies and nuclear DAPI staining under the same conditions as in FIG. 6, a cellular expression level of IL-4R was examined. After IL-4R staining, the FITC-CRKRLDRNC peptide was reacted with the cells under the same conditions as in FIG. 6, and a binding degree of the peptide was measured.

Substance: FITC-CRKRLDRNC ({FITC}-CRKRLDRNC; cysteine pairing not given here) [FITC-CRKRLDRNC peptide, called the peptide of the present invention in b132]
- position of peptide (green fluorescence) relative to IL-4R (red fluorescence) in atherosclerotic plaque tissues (IL-4R [1]): almost identically positioned
- peptide detection in cerebral tissues ([2]; 50 μM): not detected
- peptide detection in pulmonary tissues ([2]; 50 μM): not detected
- peptide found in aortic atherosclerotic plaque tissues (green fluorescence) ([2]; final blood concentration 50 μM via left ventricle): more targeted in plaque tissues
- binding to CHO-K1/IL-4R cells (IL-4R-expressing) (IL-4R [3]): green fluorescence due to the peptide
- binding to IL-4R-deficient CHO-K1 cells (IL-4R [3]): no fluorescence arising from the peptide
- binding to HT-1376/siIL-4R cells (IL-4R silencing RNA-treated) (IL-4R [4]; same conditions as in FIG. 6): substantially no binding
- binding to mock silencing RNA-treated HT-1376 cells (IL-4R [4]; same conditions as in FIG. 6): good bindability
- binding to HT-1376 cells (constitutive expression of IL-4R) (IL-4R [4]; same conditions as in FIG. 6 (10 μM, room temperature, 1 hour)): active binding
